B1: CE115HA000/GLS3000 L33V one-arm antibody (antibody, human IgG1, kappa, L234A L235A, N297A, name in Kabat numbering)
heavy: QVQLVESGGGVVQPGRSLRLSCAASGFTFSNAWMHWVRQAPGKGLEWVAQIKAKSNNYATYYAESVKGRFTISRDDSKNSLYLQMNSLKTEDTAVYYCRYVHYGAYYGVDAWGQGTTVTVSSASTKGPSVFPLAPSSKSTSGGTAALGCLVKDYFPEPVTVSWNSGALTSGVHTFPAVLQSSGLYSLSSVVTVPSSSLGTQTYICNVNHKPSNTKVDKKVEPKSCDKTHTCPPCPAPEAAGGPSVFLFPPKPKDTLMISRTPEVTCVVVDVSHEDPEVKFNWYVDGVEVHNAKTKPREEQYASTYRVVSVLTVLHQDWLNGKEYKCKVSNKALPAPIEKTISKAKGQPREPQVYTLPPSRCELTKNQVSLSCAVKGFYPSDIAVEWESNGQPENNYKTTPPVLDSDGSFFLVSKLTVDKSRWQQGNVFSCSVMHEALHNHYTQKSLSLSPDYKDDDDK
chain: EPKSSDKTHTCPPCPAPELLGGPSVFLFPPKPKDTLMISRTPEVTCVVVDVSHEDPEVKFNWYVDGVEVHNAKTKPREEQYNSTYRVVSVLTVLHQDWLNGKEYKCKVSNKALPAPIEKTISKAKGQPREPQVCTLPPSRDELTKNQVSLWCLVKGFYPSDIAVEWESNGQPENNYKTTPPVLDSDGSFFLYSKLTVDKSRWQQGNVFSCSVMHEALHNRYTQKSLSLSP
light: DIVMTQSPLSLPVTPGEPASISCRSSQSLVHSNRNTYVHWYQQKPGQAPRLLIYKVSNRFSGVPDRFSGSGSGTDFTLKISRVEAEDVGVYYCGQGTQVPYTFGQGTKLEIKRTVAAPSVFIFPPSDEQLKSGTASVVCLLNNFYPREAKVQWKVDNALQSGNSQESVTEQDSKDSTYSLSSTLTLSKADYEKHKVYACEVTHQGLSSPVTKSFNRGEC
notes: one-arm IgG1
B2: CE115HA000/GLS3000 Q93D one-arm antibody (antibody, human IgG1, kappa, L234A L235A, N297A, name in Kabat numbering)
heavy: B1 heavy
chain: B1 chain
light: B1 light with V38L, Q98D
notes: one-arm IgG1
B3: CE115HA000/GLS3000 N53V one-arm antibody (antibody, human IgG1, kappa, L234A L235A, N297A, name in Kabat numbering)
heavy: B1 heavy
chain: B1 chain
light: B1 light with V38L, N58V
notes: one-arm IgG1
B4: CE115HA000/GLS3000 N53T one-arm antibody (antibody, human IgG1, kappa, L234A L235A, N297A, name in Kabat numbering)
heavy: B1 heavy
chain: B1 chain
light: B1 light with V38L, N58T
notes: one-arm IgG1
B5: CE115HA000/GLS3000 Q90A one-arm antibody (antibody, human IgG1, kappa, L234A L235A, N297A, name in Kabat numbering)
heavy: B1 heavy
chain: B1 chain
light: B1 light with V38L, Q95A
notes: one-arm IgG1
B6: CE115HA000/GLS3000 R54E one-arm antibody (antibody, human IgG1, kappa, L234A L235A, N297A, name in Kabat numbering)
heavy: B1 heavy
chain: B1 chain
light: B1 light with V38L, R59E
notes: one-arm IgG1
B7: CE115HA000/GLS3000 Q90E one-arm antibody (antibody, human IgG1, kappa, L234A L235A, N297A, name in Kabat numbering)
heavy: B1 heavy
chain: B1 chain
light: B1 light with V38L, Q95E
notes: one-arm IgG1
B8: CE115HA000/GLS3000 P95E one-arm antibody (antibody, human IgG1, kappa, L234A L235A, N297A, name in Kabat numbering)
heavy: B1 heavy
chain: B1 chain
light: B1 light with V38L, P100E
notes: one-arm IgG1
B9: CE115HA000/GLS3000 P95D one-arm antibody (antibody, human IgG1, kappa, L234A L235A, N297A, name in Kabat numbering)
heavy: B1 heavy
chain: B1 chain
light: B1 light with V38L, P100D
notes: one-arm IgG1
B10: CE115HA000/GLS3000 N53G one-arm antibody (antibody, human IgG1, kappa, L234A L235A, N297A, name in Kabat numbering)
heavy: B1 heavy
chain: B1 chain
light: B1 light with V38L, N58G
notes: one-arm IgG1
B11: CE115HA000/GLS3000 R54P one-arm antibody (antibody, human IgG1, kappa, L234A L235A, N297A, name in Kabat numbering)
heavy: B1 heavy
chain: B1 chain
light: B1 light with V38L, R59P
notes: one-arm IgG1
B12: CE115HA000/GLS3000 N53H one-arm antibody (antibody, human IgG1, kappa, L234A L235A, N297A, name in Kabat numbering)
heavy: B1 heavy
chain: B1 chain
light: B1 light with V38L, N58H
notes: one-arm IgG1
B13: CE115HA000/GLS3000 N53W one-arm antibody (antibody, human IgG1, kappa, L234A L235A, N297A, name in Kabat numbering)
heavy: B1 heavy
chain: B1 chain
light: B1 light with V38L, N58W
notes: one-arm IgG1
B14: CE115HA000/GLS3000 P95A one-arm antibody (antibody, human IgG1, kappa, L234A L235A, N297A, name in Kabat numbering)
heavy: B1 heavy
chain: B1 chain
light: B1 light with V38L, P100A
notes: one-arm IgG1
B15: CE115HA000/GLS3000 R54D one-arm antibody (antibody, human IgG1, kappa, L234A L235A, N297A, name in Kabat numbering)
heavy: B1 heavy
chain: B1 chain
light: B1 light with V38L, R59D
notes: one-arm IgG1
B16: CE115HA000/GLS3000 P95G one-arm antibody (antibody, human IgG1, kappa, L234A L235A, N297A, name in Kabat numbering)
heavy: B1 heavy
chain: B1 chain
light: B1 light with V38L, P100G
notes: one-arm IgG1
B17: CE115HA000/GLS3000 N53K one-arm antibody (antibody, human IgG1, kappa, L234A L235A, N297A, name in Kabat numbering)
heavy: B1 heavy
chain: B1 chain
light: B1 light with V38L, N58K
notes: one-arm IgG1
B18: CE115HA000/GLS3000 N53L one-arm antibody (antibody, human IgG1, kappa, L234A L235A, N297A, name in Kabat numbering)
heavy: B1 heavy
chain: B1 chain
light: B1 light with V38L, N58L
notes: one-arm IgG1
B19: CE115HA000/GLS3000 R54Q one-arm antibody (antibody, human IgG1, kappa, L234A L235A, N297A, name in Kabat numbering)
heavy: B1 heavy
chain: B1 chain
light: B1 light with V38L, R59Q
notes: one-arm IgG1
B20: CE115HA000/GLS3000 P95L one-arm antibody (antibody, human IgG1, kappa, L234A L235A, N297A, name in Kabat numbering)
heavy: B1 heavy
chain: B1 chain
light: B1 light with V38L, P100L
notes: one-arm IgG1
B21: CE115HA000/GLS3000 N53E one-arm antibody (antibody, human IgG1, kappa, L234A L235A, N297A, name in Kabat numbering)
heavy: B1 heavy
chain: B1 chain
light: B1 light with V38L, N58E
notes: one-arm IgG1
B22: CE115HA000/GLS3000 N53F one-arm antibody (antibody, human IgG1, kappa, L234A L235A, N297A, name in Kabat numbering)
heavy: B1 heavy
chain: B1 chain
light: B1 light with V38L, N58F
notes: one-arm IgG1
B23: CE115HA000/GLS3000 R54G one-arm antibody (antibody, human IgG1, kappa, L234A L235A, N297A, name in Kabat numbering)
heavy: B1 heavy
chain: B1 chain
light: B1 light with V38L, R59G
notes: one-arm IgG1
B24: CE115HA000/GLS3000 Q93A one-arm antibody (antibody, human IgG1, kappa, L234A L235A, N297A, name in Kabat numbering)
heavy: B1 heavy
chain: B1 chain
light: B1 light with V38L, Q98A
notes: one-arm IgG1
B25: CE115HA000/GLS3000 N53S one-arm antibody (antibody, human IgG1, kappa, L234A L235A, N297A, name in Kabat numbering)
heavy: B1 heavy
chain: B1 chain
light: B1 light with V38L, N58S
notes: one-arm IgG1
B26: CE115HA000/GLS3000 Q93E one-arm antibody (antibody, human IgG1, kappa, L234A L235A, N297A, name in Kabat numbering)
heavy: B1 heavy
chain: B1 chain
light: B1 light with V38L, Q98E
notes: one-arm IgG1
B27: CE115HA000/GLS3000 N53R one-arm antibody (antibody, human IgG1, kappa, L234A L235A, N297A, name in Kabat numbering)
heavy: B1 heavy
chain: B1 chain
light: B1 light with V38L, N58R
notes: one-arm IgG1
B28: CE115HA000/GLS3000 N53P one-arm antibody (antibody, human IgG1, kappa, L234A L235A, N297A, name in Kabat numbering)
heavy: B1 heavy
chain: B1 chain
light: B1 light with V38L, N58P
notes: one-arm IgG1
B29: CE115HA000/GLS3000 N53Y one-arm antibody (antibody, human IgG1, kappa, L234A L235A, N297A, name in Kabat numbering)
heavy: B1 heavy
chain: B1 chain
light: B1 light with V38L, N58Y
notes: one-arm IgG1
B30: CE115HA000/GLS3000 N53Q one-arm antibody (antibody, human IgG1, kappa, L234A L235A, N297A, name in Kabat numbering)
heavy: B1 heavy
chain: B1 chain
light: B1 light with V38L, N58Q
notes: one-arm IgG1
B31: CE115HA000/GLS3000 Q90D one-arm antibody (antibody, human IgG1, kappa, L234A L235A, N297A, name in Kabat numbering)
heavy: B1 heavy
chain: B1 chain
light: B1 light with V38L, Q95D
notes: one-arm IgG1
B32: CE115HA000/GLS3000 N53I one-arm antibody (antibody, human IgG1, kappa, L234A L235A, N297A, name in Kabat numbering)
heavy: B1 heavy
chain: B1 chain
light: B1 light with V38L, N58I
notes: one-arm IgG1
B33: CE115HA000/GLS3000 N53M one-arm antibody (antibody, human IgG1, kappa, L234A L235A, N297A, name in Kabat numbering)
heavy: B1 heavy
chain: B1 chain
light: B1 light with V38L, N58M
notes: one-arm IgG1

Numbering of substitutions follows the chain as printed. Names and notes keep the numbering of the source.

In this test the target is T1, CD3 epsilon homodimer protein (UniProt P07766 23-126).
T1 construct: also called CD3 (CD3 epsilon)
T1 sequence (P07766 23-126): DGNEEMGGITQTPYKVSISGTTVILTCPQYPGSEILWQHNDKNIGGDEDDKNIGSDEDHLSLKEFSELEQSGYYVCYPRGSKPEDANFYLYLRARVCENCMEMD
Put plainly: SPR (Biacore T200), CD3e homodimer on CM4 chip, antibody as analyte; KD ratio vs unaltered GLS3000.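 Note: CD3 epsilon homodimer amine-coupled to the sensor surface, antibodies injected as analyte at 25 °C with HBS-EP+ running buffer.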 On the technique in general: Surface plasmon resonance follows binding to a sensor surface in real time, without labels.
Experimental: An appropriate amount of CD3 epsilon homodimer protein was immobilized onto Sensor chip CM4 (GE Healthcare Japan Corp.) by the amine coupling method. Then, the antibody having an appropriate concentration was injected thereto as an analyte and allowed to interact with the CD3 epsilon homodimer protein on the sensor chip. Then, the sensor chip was regenerated by the injection of 10 mmol/L glycine-HCl (pH 1.5). The assay was conducted at 25 degrees C., and HBS-EP+(GE Healthcare Japan Corp.) was used as a running buffer. […] Each parameter was calculated using Biacore T200 Evaluation Software (GE Healthcare Japan Corp.).
Specifically, when the amount of the GLS3000-containing antibody bound was defined as X and the amount of the L chain one-amino acid altered form bound was defined as Y, a value of Z (ratio of amounts bound)=Y/X was used.
Regarding B1, the “KD ratio to GLS3000” value came to 1.26 ratio.

Take B2: the “KD ratio to GLS3000” value was determined as 0.72 ratio.

Take B3: the “KD ratio to GLS3000” value came out at 2.14 ratio.

Turning to B4, the “KD ratio to GLS3000” value was determined as 2.68 ratio.

Consider B5, for which the “KD ratio to GLS3000” value was 0.89 ratio.

As to B6, the “KD ratio to GLS3000” value worked out at 0.84 ratio.

Take B7: the “KD ratio to GLS3000” value was 0.91 ratio.

In the case of B8, the “KD ratio to GLS3000” value amounted to 1.01 ratio.

As to B9, the “KD ratio to GLS3000” value worked out at 2.37 ratio.

Turning to B10, the “KD ratio to GLS3000” value is 1.33 ratio.

As for B11, the “KD ratio to GLS3000” value came out at 1.05 ratio.

Regarding B12, the “KD ratio to GLS3000” value worked out at 1.31 ratio.

On to B13, for which the “KD ratio to GLS3000” value worked out at 1.01 ratio.

As for B14, the “KD ratio to GLS3000” value amounted to 0.87 ratio.

Consider B15, for which the “KD ratio to GLS3000” value stood at 1.8 ratio.

Turning to B16, the “KD ratio to GLS3000” value is 1.94 ratio.

For the molecule B17, the “KD ratio to GLS3000” value turned out to be 1.05 ratio.

For B18, the “KD ratio to GLS3000” value worked out at 1.62 ratio.

B19: the “KD ratio to GLS3000” value turned out to be 1.04 ratio.

On to B20, for which the “KD ratio to GLS3000” value was found to be 11.7 ratio.

On to B21, for which the “KD ratio to GLS3000” value came out at 2.47 ratio.

As for B22, the “KD ratio to GLS3000” value came to 0.96 ratio.

For the molecule B23, the “KD ratio to GLS3000” value is 0.88 ratio.

In the case of B24, the “KD ratio to GLS3000” value is 0.65 ratio.

On to B25, for which the “KD ratio to GLS3000” value came out at 0.88 ratio.

Consider B26, for which the “KD ratio to GLS3000” value came out at 1.05 ratio.

Consider B27, for which the “KD ratio to GLS3000” value was 1.56 ratio.

In the case of B28, the “KD ratio to GLS3000” value stood at 0.98 ratio.

On to B29, for which the “KD ratio to GLS3000” value was determined as 0.99 ratio.

Take B30: the “KD ratio to GLS3000” value turned out to be 1.28 ratio.

Regarding B31, the “KD ratio to GLS3000” value was determined as 11.1 ratio.

Regarding B32, the “KD ratio to GLS3000” value was determined as 2.69 ratio.

For the molecule B33, the “KD ratio to GLS3000” value turned out to be 1.21 ratio.

Values taken from patent US20240270846A1 (published 2024).
